B1: LINE1-full (parent)
chain: UACGUAGGUGGUUUUCCCCUGAUAGUGCUAAGGGGGCCUGGAAGUUUGGACUGGGCAGAGCUCAACACAGCGUGGCAAAGUGGCUGUGGCUAGACUGCCUCUCUGGAUUCCUCGUCACUCAGCAGGGCAUCUCUGAGAGAAAUGCC

Variants of: B1
Experiment: self-cleavage, relative activity (ratio to wild type); higher = more cleavage; in vitro, sequencing; the parent is a self-cleaving ribozyme
UGCGUAGGUGGUUUUCCCCUGAUAGUGCUAAGGGGGCCUGGAAGUUUGGACUGGGCAGAGCUCAACACAGCGUGGCAAAGUGGCUGUGGCUAGACGGCCUCUCUGGAUUCCUCGUCACUCAGCAGGGCAUCUCUGAGAGAAAUGCC [A2G U96G] showed a self-cleavage of 0.12. Work on UACGUAGGUGGUUUUCCCCUGAUAGUGUUAAGGGGGCCCGGAAGUUUGGACUGGGCAGAGCUCAACACAGCGUGGCAAAGUGGCUGUGGCUAGACUGCCUCUCUGGAUUCCUCGUCACUCAGCAGGGCAUCUCUGAGAGAAAUGCC [C28U U39C] yielded a self-cleavage of 0.97. UACGUAGGUGGUUUUCCCCUGAUAGUGCUAAGGGGGCCUGGAAGUUUGGACUGGGCUGGGCUCAACACAGCGUGGCAAAGUGGCUGUGGCUAGACUGCCUCUCUGGAUUCCUCGUCACUCAGCAGGGCAUCUCUGAGAGAAAUGCC [A57U A59G] showed a self-cleavage of 0.05. Variant UACGUAGGUGGUUUUCCCCUGAUAGUGCUAAGGGGGCCUGGAAGUUUGGACUGGGCUGAGCUCAACACAGCGUGGCAAAGUGGCUGUGGCUAGACUGCCUCUCUGGUUUCCUCGUCACUCAGCAGGGCAUCUCUGAGAGAAAUGCC [A57U A107U] has a self-cleavage of 0.02. For UACGUAGGUGGUUUUCCCCUGAUAGUGCUAAGGGGGCCUGGAAGUUUGGACUGGGCAGAGCUCAAUACAGCGUGGCAAAGUGGCUGUGGCUAGACUGCCUCUCUGGAUUCCUCGUCACUCAGCAGGGCAUCUCUGAGAGAAACGCC [C66U U143C], the self-cleavage was 0.03. UACGUAGGUGGUUUUCCCCUGGUAGUGCUAAGGGGGCCUGGAAGUUUGGACUGGGCAGAGCUCAACACAGCGUGGCAAAGUGGCUGUGGCUAGACCGCCUCUCUGGAUUCCUCGUCACUCAGCAGGGCAUCUCUGAGAGAAAUGCC [A22G U96C] gave a self-cleavage of 0.2. With UACGUAGGUGGUUUUCCCCUGGUAGUGCUAAGGGGGCCUGGAUGUUUGGACUGGGCAGAGCUCAACACAGCGUGGCAAAGUGGCUGUGGCUAGACUGCCUCUCUGGAUUCCUCGUCACUCAGCAGGGCAUCUCUGAGAGAAAUGCC [A22G A43U] the self-cleavage was 0.88. UACGAAGGUGGUUUUCCCCUGAUAGUGCUAAGGGGGCCUGGAAGUUUGGACUGGGCAGAGCUCAACACAGCGUGGCAAGGUGGCUGUGGCUAGACUGCCUCUCUGGAUUCCUCGUCACUCAGCAGGGCAUCUCUGAGAGAAAUGCC [U5A A79G] showed a self-cleavage of 0.87. With UACGUAGGUGGUUUUCCCCUGAUAGUGCUAAGGGGGCCUGGAAGUUUGGACUGGGCAGAGCUCAACACAUCGUGGCAAAGUGGCUGUGGCUAGACUGCCUCUCUGGAUUCCUCGUCACUCAGCAGGGCAUCUCUGAGAGGAAUGCC [G70U A140G] the self-cleavage was 0.04. Variant UACGUAGGUGGUUUUCCCCUGAUAGUGCUAAGGGGGCCUGGAAGUUUGGACUGGGCAGAGCUCAACACAGCGUGGCAAGGUGGCUGUGGCUAAACUGCCUCUCUGGAUUCCUCGUCACUCAGCAGGGCAUCUCUGAGAGAAAUGCC [A79G G93A] has a self-cleavage of 0.04. With UACGUAGGUGGUCUUCCCCUGAUAGUGCUAAGGGGGCCUGGAAGUUUGGACUGGGCAGAGCUCAACACAGCGCGGCAAAGUGGCUGUGGCUAGACUGCCUCUCUGGAUUCCUCGUCACUCAGCAGGGCAUCUCUGAGAGAAAUGCC [U13C U73C] the self-cleavage was 1.17. For UACGUAGGUGGUAUUCCCCUGAUAGUGCUAAGGGGGCCUGGAAGUUUGGACUGGGCAGAGCUCAACACAGCGUGGCAAAGUGGCUGUGGCCAGACUGCCUCUCUGGAUUCCUCGUCACUCAGCAGGGCAUCUCUGAGAGAAAUGCC [U13A U91C], the self-cleavage was 0.89. With UACGCAGGUGGUUUUCCCCUGAUAGUGCUAAGGGGGCCUGGAAGUUUGGACUGGGCAGAGCUCAACACAGCGUGGUAAAGUGGCUGUGGCUAGACUGCCUCUCUGGAUUCCUCGUCACUCAGCAGGGCAUCUCUGAGAGAAAUGCC [U5C C76U] the self-cleavage was 1.88. UAAGUAGGUGGUUUUCCCCUGAUAGUGCUAAGGGGGCCUGGAAGUUUGGACUGGGCAGAGCUCAACACGGCGUGGCAAAGUGGCUGUGGCUAGACUGCCUCUCUGGAUUCCUCGUCACUCAGCAGGGCAUCUCUGAGAGAAAUGCC [C3A A69G] gave a self-cleavage of 0.31. With UACGUAGGUGGUUUUCCCCUGAUAGUGCUAAGGGGGCCUGGAAGUUUGGACUGGGCAGAGCUCAACACAGCGGGGCAAAGUGGCUGUGGCUAGACUGCCUCUCUGGAUCCCUCGUCACUCAGCAGGGCAUCUCUGAGAGAAAUGCC [U73G U109C] the self-cleavage was 1.07. UACGUAGGUGGUUUUCCCCUGAUAGUGCUAAGGGGGCCUGGAAGUUUGGACUGGGCAGAGCUCAACACAGCGUGGCAAAGUGGCUGUGGCUAGACUGCCUCUCUAGAUUCCUCGUCACUCUGCAGGGCAUCUCUGAGAGAAAUGCC [G105A A121U] gave a self-cleavage of 1.46. In the case of UACGUAGGUGGUUUUCCCCUGAUAGUGCCAAGGGGGCCUGGAAGUUUGGACUGGGCAGAGCUCAACACAGCGUGGCAAAGUGGCUGUGGCUAGACUGCCUCUCUGGAUUCCUCGUCACUCAGCAGGGCAUCUCUGAGAGGAAUGCC [U29C A140G], the self-cleavage is reported as 1.2. Variant UACGCAGGUGGUUUUCCCCUGAUAGUGCUAAGGGGGCCUGGAAGUUUGGACUGGGCGGAGCUCAACACAGCGUGGCAAAGUGGCUGUGGCUAGACUGCCUCUCUGGAUUCCUCGUCACUCAGCAGGGCAUCUCUGAGAGAAAUGCC [U5C A57G] has a self-cleavage of 0.93. UACGUAGGUGGUUUUCCCCUGAUAGUGCUAAGGGGGCCUGGAAGUUUGGACUGGGCAGAGCUCAACACAGCGUGGCGAAGUGGCUGUGGCUAGACUGCCUCUCUGGAUUCCUCGUCACUCAGCAGGGCAUCUCUGAGAGAAAUGAC [A77G C145A] gave a self-cleavage of 2.43. With UAUGUAGGUGGUUUUCCCCUGAUAGGGCUAAGGGGGCCUGGAAGUUUGGACUGGGCAGAGCUCAACACAGCGUGGCAAAGUGGCUGUGGCUAGACUGCCUCUCUGGAUUCCUCGUCACUCAGCAGGGCAUCUCUGAGAGAAAUGCC [C3U U26G] the self-cleavage was 0.87. For UACGUAGGUGGUUUUCCCCUGAUAGUGCUAAGGGGGCCCGGAAGUUUGGACUGGGCAGAGCUCAACACAGCGUGGCAAAGUGGCUGUGGCUAGACUGCCUCUCUGGAUUCCUCGUCACUCAGCAGGGCAUCUCUGAGUGAAAUGCC [U39C A138U], the self-cleavage was 1.29. Work on UACGUAGGUGGGUUUCCCCUGAUAGUGCUAAGGGGGCCUGGAAGUUUGGACUGGGCAGAGCUCAACACAGCGUGGCAAAGUGGCUGUGGCUAGACUGCCUCUCUGGAUUCCUCGUCACUCAGCAGGGCAUCUCUGAGUGAAAUGCC [U12G A138U] yielded a self-cleavage of 1.02. With UACGUAGGUGGUUUUCCCCUGAUAGUGCUAAGAGGGCCUGGAAGUUUGGACUGGGCAGAGCUCAACACAGCGUGGCAAAGUGGCUGUGGCUAGACUGCCUCUCUGGAUUCCUCGUCACUCAGCAGGGCAUCUCUGAGAGGAAUGCC [G33A A140G] the self-cleavage was 1.29. UACGUAGGUGGUUUUCCCCUGAUAGCGCUAAGGGGGCCUGGAAGUUUGGACUGGGCAGAGCUCAACACAGCGUGGCAAAGUGGCUGUGGCUAGACUGCCUCUCUGGAUUCCUCGUCACUCAGCAGGGCAUCUCCGAGAGAAAUGCC [U26C U134C] gave a self-cleavage of 0.83. With UACGUAGGUGGUUUUCCUCUGAUAGUGCUAAGGGGGCCUGGAAGUUUGGACUGGGCAGAGCUCAACGCAGCGUGGCAAAGUGGCUGUGGCUAGACUGCCUCUCUGGAUUCCUCGUCACUCAGCAGGGCAUCUCUGAGAGAAAUGCC [C18U A67G] the self-cleavage was 0.44. UACGUAGGUGGUUUUCCCCUGAUAGUGCUAAGGGGGCCAGGAAGUUUGGACUGGGCAGAGCUCAACACAGCGUGGCAAAGUGGCUGUGGCUAGACUGCCUCUCUGGAUUCCUCGUCACUCAGCAGGGCAUCUCAGAGAGAAAUGCC [U39A U134A] showed a self-cleavage of 0.9. Work on UACGUAGGUGGUUUUCCCCUGAUAGUGCUAAGGGGGCCUGGGAGUUUGGACUGGGCAGAGCUCAACACAGCGUGGCAAAGUGGCUGUGGCUAGAUUGCCUCUCUGGAUUCCUCGUCACUCAGCAGGGCAUCUCUGAGAGAAAUGCC [A42G C95U] yielded a self-cleavage of 0.2. UACGUAGGUGGUUUUCCCCUGAUAGUGCUAAGGUGGCCUGGAAGUUUGGACUGGGCAGAGCUAAACACAGCGUGGCAAAGUGGCUGUGGCUAGACUGCCUCUCUGGAUUCCUCGUCACUCAGCAGGGCAUCUCUGAGAGAAAUGCC [G34U C63A] showed a self-cleavage of 0.04. For UACGUAGGUGGUUUUCCCCUGAUAGUGCUAAGGGGGCCUGGAAGUUUGGACUGGGCAGAGCUCAACACAGCGUGGCAAAGUGGCUGUGGCUAGACUGCCUCUUUGGAUUCCUCGUCACUCAGCAGGGCAUCUCUGAGAGUAAUGCC [C103U A140U], the self-cleavage was 1.72. In the case of UACGUAGGUGGUUUUCCCCUGAUAGUGCUAAGGGGGCCUGGAAGUUUGGACUGGGCAGAGCUCAACACAGCGUGGCAAAGUGGCUGUGGCUAGACUACCUCUCUGGAUUCCUCGUCACUCAGCAGGGCAUCUCUGAGAGAAACGCC [G97A U143C], the self-cleavage is reported as 0.16. For UACGUAGGUGGUUUUCCCUUGAUAGUGCUAAGGGGGCCUGGAAGUUUGGACUGGGCAGAGCUCAACACAGCGUGGCAAAGUGGCUGUGGCUAGACUGCCUCUCUGGAUUCCCCGUCACUCAGCAGGGCAUCUCUGAGAGAAAUGCC [C19U U112C], the self-cleavage was 1.13. For UACGUAGGUGGUUUUCCCCUGAUAGUGCUAGGGGGGCCUGGAAGUUUGGACUGGGCAGAGCUCAACACAGCGUGGCAAAGUGGCUGUGGCUAGACUGCCUCUCUGGAUUCCUCGUCACUCAGCUGGGCAUCUCUGAGAGAAAUGCC [A31G A124U], the self-cleavage was 1.3. Work on UACGUAGGUGGUUUUCCCCUGAUAGCGCUAAGGGGGCCUGGAAGUUUGGACUGGGCAGAGCUCAACACAGCGUGGCAAAGUGGCUGUGGCUAGACUGCCUCUCUGGAUUCCUCGUCACUCAGCAGGGCAUCUUUGAGAGAAAUGCC [U26C C133U] yielded a self-cleavage of 0.98. Work on UACGUAGGUGGUUUUCCCCUGAUAGUGCUAAGGGGGCCUGGAUGUUUGGACUGGGCAGAGCUCAACACAGCGUGGCAAAGUGGCUGUGGCUAGACUGCCUCUCUGGAUUCCUCGCCACUCAGCAGGGCAUCUCUGAGAGAAAUGCC [A43U U115C] yielded a self-cleavage of 1.21. For UACGUAGGUGGUUUUCCCCUGAUCGUGCUAAGGGGGCCUGGAAGUUUGGACUGGGCAGAGCUCAACACAGCGUGGCAAAGUGGCUGUGGCUAGACUGCCUCUCUGGAUUCCUCGUCACUCAGCAGGGCAUCUCUGAGGGAAAUGCC [A24C A138G], the self-cleavage was 0.88. Work on UACGUAGGUGGUUUUCCCCUGAUAGUGCUAAGGGGGCCUGGAAGUUUGGACUGGGCAGAGCUCAACACAGCGUGGCAAAGUGGCUGUGGCUAGACUGCCUCUCUGGAUUCCUCGUCACUCGGCAGGGCAUCUCUGGGAGAAAUGCC [A121G A136G] yielded a self-cleavage of 1.65. UACGUAGGUGGUUUUCCCCUGAUAGUGCUAAGGGGGCCUGGAAGUUUGGACUGGGCAGAGCUCAACACAGCGUGGCAAAGUGGCUGUGGCUAGACUGCCUCUCUGGAUUCCUCGUCACUCAGCGGAGCAUCUCUGAGAGAAAUGCC [A124G G126A] showed a self-cleavage of 1.22. With UACGUAGGUGGUUUUCCCCUGAUAGGGCUAAGGGGGCCUGGAAGUUUGGACUGGGCAGACCUCAACACAGCGUGGCAAAGUGGCUGUGGCUAGACUGCCUCUCUGGAUUCCUCGUCACUCAGCAGGGCAUCUCUGAGAGAAAUGCC [U26G G60C] the self-cleavage was 0.07. With UACGUAGGUGGUUUUCCCCUGAUAGUGCUAAAGGGGCCUGGAAGUUUGGACUGGGCAGAGCUCAACACAGCGUGGCAAAGUGGCUGUGGCUAGACUGCCUCUCUGGAUUCCUCGUCACUCAGCAGGGCACCUCUGAGAGAAAUGCC [G32A U130C] the self-cleavage was 1.26.
